Experimental data reported in patent US20160024210A1 (AstraZeneca / MedImmune, published 2016).

T1: H7CRECD human IgG1 Fc fusion protein (human, UniProt Q96BF3 23-150)
T1 construct: also called H7CR fusion protein; not shown: human IgG1 Fc
T1 sequence: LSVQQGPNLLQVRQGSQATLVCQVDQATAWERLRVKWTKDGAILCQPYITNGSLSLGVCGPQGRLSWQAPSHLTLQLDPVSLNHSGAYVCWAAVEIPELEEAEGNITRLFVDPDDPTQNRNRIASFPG

T2: human H7CR (B7-H7 counter-receptor) (human, UniProt Q96BF3 23-282)
T2 construct: Used for H7CR on CHO.hH7CR transfectants, human T cells and tonsil tissue; also called B7-H7CR; CD28H
T2 sequence: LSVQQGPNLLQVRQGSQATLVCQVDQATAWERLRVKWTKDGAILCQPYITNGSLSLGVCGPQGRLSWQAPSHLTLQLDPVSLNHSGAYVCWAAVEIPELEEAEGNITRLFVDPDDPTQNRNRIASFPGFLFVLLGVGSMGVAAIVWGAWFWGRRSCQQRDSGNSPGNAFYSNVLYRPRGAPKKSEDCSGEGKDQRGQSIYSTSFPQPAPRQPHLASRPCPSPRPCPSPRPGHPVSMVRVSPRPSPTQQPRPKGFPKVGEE


Key:
[1] = target: T1, H7CRECD human IgG1 Fc fusion protein; experiment: ELISA, H7CRECD human IgG1 Fc immobilized, anti-human IgG4 HRP detection
Protocol: 100 μl 1 μg/ml H7CRECD human IgG1 Fc fusion protein diluted in PBS was immobilized on flat bottom 96 well plate (Costar 9017) overnight at 4° C. Plates were washed twice with PBS+0.1% PS-20 and blocked with 200 μl/well PBS 10% FBS at RT for 1 hr. 100 μl human IgG4 Fc chimeric 1.3 and 14 selected 1.3 humanized variants diluted in PBS 10% FBS were added to each well and incubated at RT for 1 hr. Plates were washed three times and 100 μl 1 μg/ml anti-human IgG4 HRP (Southern Biotech) was added to each well and incubated at RT for 1 hr. Plates were washed six times and 100 μl TMB substrate (SurModics) was added to each well for 5-15 mins. 100 μl stop solution (0.1M Sulfuric acid) was added to each well. Plates were read at Absorbance 450 nm by PerkinElmer EnVision 2104 Multilabel Reader.

[2] = target: T2, human H7CR (B7-H7 counter-receptor); experiment: flow cytometry, MFI against antibody concentration on human naive CD4+CD45RA+ T cells, anti-hIg PE secondary antibody, one-site specific binding fit
Protocol: (§1) A serial dilution of chimeric 1.3 and 4.5 of 0, 0.1 ng, 0.3 ng, 1 ng, 3 ng, 10 ng, 30 ng, 100 ng, 300 ng, 1 μg, 3 μg and 10 μg were added to the cells and incubated at 4° C. for 30 min. Cells were then washed twice with 2 ml flow cytometry buffer, and resuspended in 100 μl flow cytometry buffer. 1 μl anti-hIg PE secondary antibody (Biolegend) was added and incubated with the cells for 15 mins Samples were then washed and resuspended in 100 μl flow cytometry buffer. Flow Cytometry data was acquired using BD Canto (BD Biosciences) in plate format and analyzed by FlowJo software. Staining data (MFI) was then input into Prism 5 software to generate binding curve. Curve-fit using one-site specific binding algorithm calculates individual KD for each antibody.

[3] = target: T2, human H7CR (B7-H7 counter-receptor); experiment: flow cytometry, MFI against antibody concentration on human naive CD8+CD45RA+ T cells, anti-hIg PE secondary antibody, one-site specific binding fit
Protocol: as §1

[4] = target: T2, human H7CR (B7-H7 counter-receptor); experiment: flow cytometry titration on CHO.hH7CR transfectants, one-site specific binding fit of MFI
Protocol: as §1

| EC50 [1] [nM] | Binder | also measured |
| --- | --- | --- |
| 2.43 | 1.3 humanized variant V9 (heavy 2B / light 1B) (antibody, V domains shown, Variable domains only; detected with anti-human IgG4 HRP) VH: QVQLQESGPGLVKPAQTLSLTCTVSGFSISTSGYYWSWIRQYPGKRLEWIGYINYGGGTSYNPSLKSRVTISRDTSKNQFSLKLTSVTAADTATYCCATMADRFAFFDVWGQGTMVTVSS VL: DIVMTQSPDSLAVSLGERATINCKSSQSLFSSNTNRNYLNWYQQKPGQSPKLLIYHASTRLSGVPDRFSGSGSGTDFTLTISSLQAEDVADYYCQHHYETPLTFGDGTKLEIK |  |
| 1.04 | 1.3 humanized variant V11 (heavy 1B / light 1C) (antibody, V domains shown, Variable domains only; detected with anti-human IgG4 HRP) VH: QVQLQESGPGLVKPSQTLSLTCTVSGFSISTSGYYWSWIRQHPGKRLEWIGYINYGGGTSYNPSLKSRVTISRDTSKNQFSLKLSSVTAADTAVYCCATMADRFAFFDVWGQGTMVTVSS VL: DIVMTQSPDSLAVSLGERATINCLSSQSLFSSNTNRNYLNWYLQKPGQSPKLLIYHASTRLSGVPDRFIGSGSGTDFTLTISSLQAEDVGDYYCQHHYETPLTFGDGTKLEIK |  |
| 0.45 | 1.3 humanized variant V13 (heavy 2B / light 1C) (antibody, V domains shown, Variable domains only; detected with anti-human IgG4 HRP) VH: QVQLQESGPGLVKPAQTLSLTCTVSGFSISTSGYYWSWIRQYPGKRLEWIGYINYGGGTSYNPSLKSRVTISRDTSKNQFSLKLTSVTAADTATYCCATMADRFAFFDVWGQGTMVTVSS VL: DIVMTQSPDSLAVSLGERATINCLSSQSLFSSNTNRNYLNWYLQKPGQSPKLLIYHASTRLSGVPDRFIGSGSGTDFTLTISSLQAEDVGDYYCQHHYETPLTFGDGTKLEIK |  |
| 1.18 | 1.3 humanized variant V10 (heavy 2C / light 1B) (antibody, V domains shown, Variable domains only; detected with anti-human IgG4 HRP) VH: QVQLQESGPGLVKPAQTLSLTCTVSGFSISTSGYYWSWIRQFPGKRLEWMGYINYGGGTSYNPSLKSRVTISRDTSKNQFSLKLTSVTAADTATYCCATMADRFAFFDVWGQGTMVTVSS VL: DIVMTQSPDSLAVSLGERATINCKSSQSLFSSNTNRNYLNWYQQKPGQSPKLLIYHASTRLSGVPDRFSGSGSGTDFTLTISSLQAEDVADYYCQHHYETPLTFGDGTKLEIK |  |
| 0.75 | 1.3 humanized variant V12 (heavy 1C / light 1C) (antibody, V domains shown, Variable domains only; detected with anti-human IgG4 HRP) VH: QVQLQESGPGLVKPSQTLSLTCTVSGFSISTSGYYWSWIRQFPGKRLEWMGYINYGGGTSYNPSLKSRVTISRDTSKNQFSLKLSSVTAADTATYCCATMADRFAFFDVWGQGTMVTVSS VL: DIVMTQSPDSLAVSLGERATINCLSSQSLFSSNTNRNYLNWYLQKPGQSPKLLIYHASTRLSGVPDRFIGSGSGTDFTLTISSLQAEDVGDYYCQHHYETPLTFGDGTKLEIK |  |
| 0.32 | 1.3 humanized variant V14 (heavy 2C / light 1C) (antibody, V domains shown, Variable domains only; detected with anti-human IgG4 HRP) VH: QVQLQESGPGLVKPAQTLSLTCTVSGFSISTSGYYWSWIRQFPGKRLEWMGYINYGGGTSYNPSLKSRVTISRDTSKNQFSLKLTSVTAADTATYCCATMADRFAFFDVWGQGTMVTVSS VL: DIVMTQSPDSLAVSLGERATINCLSSQSLFSSNTNRNYLNWYLQKPGQSPKLLIYHASTRLSGVPDRFIGSGSGTDFTLTISSLQAEDVGDYYCQHHYETPLTFGDGTKLEIK |  |
| 0.055 | human IgG4 Fc chimeric 1.3 antibody (antibody, V domains shown, also called parental chimeric 1.3 antibody) VH: QIQLQESGPGLVKPSQSLSLTCSVTGFSISTSGYYWTWIRQFPGKRLEWMGYINYGGGTSYNPSLKSRISITRDTSKNQFLLHLNSVTTEDTATYCCATMADRFAFFDVWGQGIQVTVSS VL: DIVMTQSPSSLAVSAGEKVTISCLSSQSLFSSNTNRNYLNWYLQKPGQSPKLLIYHASTRLTGVPDRFIGSGSGTDFTLTISSVQAEDLGDYYCQHHYETPLTFGDGTKLEIKR | Kd [2]: 24 nM; Kd [3]: 27 nM; Kd [4]: 5.9 nM |

Further lines, the binder ahead of its results:

| Binder | EC50 [1] [nM] | also measured |
| --- | --- | --- |
| 1.3 humanized variant V8 (heavy 1C / light 1B) (antibody, V domains shown, Variable domains only; detected with anti-human IgG4 HRP) VH: QVQLQESGPGLVKPSQTLSLTCTVSGFSISTSGYYWSWIRQFPGKRLEWMGYINYGGGTSYNPSLKSRVTISRDTSKNQFSLKLSSVTAADTATYCCATMADRFAFFDVWGQGTMVTVSS VL: DIVMTQSPDSLAVSLGERATINCKSSQSLFSSNTNRNYLNWYQQKPGQSPKLLIYHASTRLSGVPDRFSGSGSGTDFTLTISSLQAEDVADYYCQHHYETPLTFGDGTKLEIK | 0.74 |  |
| 1.3 humanized variant V4 (heavy 2A / light 1A) (antibody, V domains shown, Variable domains only; detected with anti-human IgG4 HRP) VH: QVQLQESGPGLVKPAQTLSLTCTVSGFSISTSGYYWSWIRQYPGKGLEWIGYINYGGGTYYNPSLKSRVTISVDTSKNQFSLKLTSVTAADTAVYHCATMADRFAFFDVWGQGTMVTVSS VL: DIVMTQSPDSLAVSLGERATINCKSSQSLFSSNTNRNYLAWYQQKPGQPPKLLIYHASTRESGVPDRFSGSGSGTDFTLTISSLQAEDVAVYYCQHHYETPLTFGQGTKLEIK | 1.08 |  |
| 1.3 humanized variant V3 (heavy 1C / light 1A) (antibody, V domains shown, Variable domains only; detected with anti-human IgG4 HRP) VH: QVQLQESGPGLVKPSQTLSLTCTVSGFSISTSGYYWSWIRQFPGKRLEWMGYINYGGGTSYNPSLKSRVTISRDTSKNQFSLKLSSVTAADTATYCCATMADRFAFFDVWGQGTMVTVSS VL: DIVMTQSPDSLAVSLGERATINCKSSQSLFSSNTNRNYLAWYQQKPGQPPKLLIYHASTRESGVPDRFSGSGSGTDFTLTISSLQAEDVAVYYCQHHYETPLTFGQGTKLEIK | 0.38 |  |
| 1.3 humanized variant V2 (heavy 1B / light 1A) (antibody, V domains shown, Variable domains only; detected with anti-human IgG4 HRP) VH: QVQLQESGPGLVKPSQTLSLTCTVSGFSISTSGYYWSWIRQHPGKRLEWIGYINYGGGTSYNPSLKSRVTISRDTSKNQFSLKLSSVTAADTAVYCCATMADRFAFFDVWGQGTMVTVSS VL: DIVMTQSPDSLAVSLGERATINCKSSQSLFSSNTNRNYLAWYQQKPGQPPKLLIYHASTRESGVPDRFSGSGSGTDFTLTISSLQAEDVAVYYCQHHYETPLTFGQGTKLEIK | 0.23 |  |
| 1.3 humanized variant V6 (heavy 2C / light 1A) (antibody, V domains shown, Variable domains only; detected with anti-human IgG4 HRP) VH: QVQLQESGPGLVKPAQTLSLTCTVSGFSISTSGYYWSWIRQFPGKRLEWMGYINYGGGTSYNPSLKSRVTISRDTSKNQFSLKLTSVTAADTATYCCATMADRFAFFDVWGQGTMVTVSS VL: DIVMTQSPDSLAVSLGERATINCKSSQSLFSSNTNRNYLAWYQQKPGQPPKLLIYHASTRESGVPDRFSGSGSGTDFTLTISSLQAEDVAVYYCQHHYETPLTFGQGTKLEIK | 0.3 |  |
| 1.3 humanized variant V7 (heavy 1B / light 1B) (antibody, V domains shown, Variable domains only; detected with anti-human IgG4 HRP) VH: QVQLQESGPGLVKPSQTLSLTCTVSGFSISTSGYYWSWIRQHPGKRLEWIGYINYGGGTSYNPSLKSRVTISRDTSKNQFSLKLSSVTAADTAVYCCATMADRFAFFDVWGQGTMVTVSS VL: DIVMTQSPDSLAVSLGERATINCKSSQSLFSSNTNRNYLNWYQQKPGQSPKLLIYHASTRLSGVPDRFSGSGSGTDFTLTISSLQAEDVADYYCQHHYETPLTFGDGTKLEIK | 1.01 |  |
| 1.3 humanized variant V1 (heavy 1A / light 1A) (antibody, V domains shown, Variable domains only; detected with anti-human IgG4 HRP; also called VI; variant 1) VH: QVQLQESGPGLVKPSQTLSLTCTVSGFSISTSGYYWSWIRQHPGKGLEWIGYINYGGGTYYNPSLKSRVTISVDTSKNQFSLKLSSVTAADTAVYYCATMADRFAFFDVWGQGTMVTVSS VL: DIVMTQSPDSLAVSLGERATINCKSSQSLFSSNTNRNYLAWYQQKPGQPPKLLIYHASTRESGVPDRFSGSGSGTDFTLTISSLQAEDVAVYYCQHHYETPLTFGQGTKLEIK | 0.84 |  |
| 1.3 humanized variant V5 (heavy 2B / light 1A) (antibody, V domains shown, Variable domains only; detected with anti-human IgG4 HRP) VH: QVQLQESGPGLVKPAQTLSLTCTVSGFSISTSGYYWSWIRQYPGKRLEWIGYINYGGGTSYNPSLKSRVTISRDTSKNQFSLKLTSVTAADTATYCCATMADRFAFFDVWGQGTMVTVSS VL: DIVMTQSPDSLAVSLGERATINCKSSQSLFSSNTNRNYLAWYQQKPGQPPKLLIYHASTRESGVPDRFSGSGSGTDFTLTISSLQAEDVAVYYCQHHYETPLTFGQGTKLEIK | 0.28 |  |
| chimeric 4.5 antibody (antibody, human IgG4 S228P, kappa, V domains shown) VH: QIQLQESGPGLVKPSQSLSLTCSVTGFSITTGGYYWNWIRQFPGKKLEWMGYIYTSGRTSYNPSLKSRISITRDTSKNQFFLQLNSMTTEDTATYYCADMADKGGWFAYWGQGTLVTVSS VL: DIVMTQSPSSLAVSAGEKVTISCLSSQSLFSSNTKRNYLNWYLQKPGQSPKLLIYHASTRLTGVPGRFIGSGSGTDFTLTVSTVQAEDLGDYFCQQHYETPLTFGDGTRLEIKR |  | Kd [2]: 6.9 nM; Kd [3]: 6.9 nM; Kd [4]: 3.5 nM |
